Km, kcat and kcat/Km data for two molecules are collected here from article PMC5831843, “Creating a more robust 5-hydroxymethylfurfural oxidase by combining computational predictions with a novel effective library design” (Biotechnology for Biofuels, 2018).

Series [1] concerns T1, O=Cc1ccc(CO)o1.
T1 construct: full-length, N-terminal His6x-SUMO fusion kept, recombinant from E. coli (pET SUMO / pBAD SUMO), FAD-containing
Briefly: purified protein. The class given is biochemical, Methylovorus sp. MP688. Conditions: 50 mM phosphate pH 8.0, 25 °C, O2 as electron acceptor.

Substrate in series [2]: O=Cc1ccc(CO)o1
Briefly: purified protein. Conditions: 50 mM phosphate pH 8.0, 25 °C, O2 as electron acceptor.

As a reminder, the Km is the substrate concentration at which the rate is half of its maximum. In general, kcat refers to the maximal rate divided by the concentration of active sites. A word on the kcat/Km: it is the second-order rate constant that governs catalysis at low substrate concentration. For “HMFO (HMF oxidase) (Methylovorus sp. MP688; A419Y/A435E/G356H/H74Y/I73V/T414K/V367L)”, in series [1], the Km was 630 µM, the kcat amounted to 11.8 s⁻¹ and the specificity constant (kcat/Km) came out at 18700 M⁻¹ s⁻¹.

B1: HMFO (HMF oxidase) (Methylovorus sp. MP688) (protein)
chain: MTDTIFDYVIVGGGTAGSVLANRLSARPENRVLLIEAGIDTPENNIPPEIHDGLRPWLPRLSGDKFFWPNLTIHRAAEHPGITREPQFYEQGRLLGGGSSVNMVVSNRGLPRDYDEWQALGADGWDWQGVLPYFIKTERDADYGDDPLHGNAGPIPIGRVDSRHWSDFTVAATQALEAAGLPNIHDQNARFDDGYFPPAFTLKGEERFSAARGYLDASVRVRPNLSLWTESRVLKLLTTGNAITGVSVLRGRETLQVQAREVILTAGALQSPAILLRTGIGPAADLHALGIPVLADRPGVGRNLWEHSSIGVVAPLTEQARADASTGKAGSRHQLGIRASSGVDPATPSDLFLHIGADPVSGLASAVFWVNKPSSTGWLKLKDADPFSYPDVDFNLLSDPRDLGRLKAGLRLITHYFAAPSLAKYGLALALSRFAAPQPGGPLLNDLLQDEAALERYLRTNVGGVWHASGTARIGRADDSQAVVDKAGRVYGVTGLRVADASIMPTVPTANTNLPTLMLAEKIADAILTQA
In the case of B1, in series [2], the Km was found to be 1520 µM, the kcat amounted to 13.7 s⁻¹ and the kcat/Km came out at 9030 M⁻¹ s⁻¹.
